Assay: soluble on expression in E. coli; label from the status in PepcDB or PDB records

Sequence | soluble on expression in E. coli
MSKIASEVVATTLNDWYIAIKKQKVDESIKYYSEIKKLFDEMEEDQEVLAYYSLLEERHKMLLHSSRGEPLQKHTYFTEDNQNFITKTNDKLEYNFYLFEAMYEAYNKNYDRAINLYGLAEKKLAEIPDEIEAAEFYSKVSYLYTLVKQSIVAQHYIKNAISIYKRHPDYKCKLATSTMIAAANYADMKRFEEAEQYYLEAIDIAKETKDEFLKAQLFHNLSIVYSDWNKPDKCIESLEKAIGNESWLHSIYYINSLFMMIKELFKIDEKMKAINFYNKAQERLILMENKVYEAKISILYNLYCGELKNNFNNCISNIEFLKQQNELESVDELSYIAAKRFESIGAFEEATSFFNAKIWAEQKMNQVEGIL | not soluble
MGSDKIHHHHHHMSPLFTNSEIISRVIKEHFNKNLDHYDGVKFSFMVLNKKNPSQMIIISSYPDEWVNLYKENKYQHIDPVVLASFNKISPFSWEKSLVINTRLQLAKIFDLSKKYDIINGYTFVLHDHGDNLAMLSIIVDNSYPDDVETFIEERKDIFQMLLIEAYEKIISLCKEMIGNKKQLNNKEIFSQRENEILYWASMGKTYLEVAIILGIKTSTVKFHIGNVVKKLGVLNAKHAIRLGVELQLIKPVQ | not soluble
MAHHHHHHMGGFSSKNMEYYNYASMKLLDRSKYINEEEEEDDYHYCKETDIRETIKKAREIKNCNYKESMDLYIKALKTLKKLKENNSRIYRNVLEFEIRPQEIANSMSLKNSLEKNMYMKKEGDKDYTGGPSNDNQTISINNKIASLYNEIADLCCIHDFIEKSLFYYDKACSYNPSKIDYIYKKGVLFQQMNDTERAINTFKIILSSEPNHIPTLFSLGNLYRYIDNHIALSYFEAILKIEPNNTEVLSLIASCYDNLGKLNEAISYQNKAVQIDPDNFNHKKFAQRLIEMKSHN | not soluble
MIDKQSGIPIYIQIQSEIKKKMEDGVWKVGTSIPAERQLAEMFHVSRMTVRQAIQGLVDDNILQRRVGAGTFIAEKKLTERLEAVTSFTNLMLQEGKVPSTRIVSYGIRPASTQEQEALQLPENSNVMKIERIRYGDRVPILYEVAAIPEKIASLLTKEDIMDSLYKAIELKLGQPIGEAEQIMEASLVSEKIAPYLDVKLGSPVMKLRQITTLEDGRPFEFTRSQYVGSRFQFVARIKQ | not soluble
MLKFKNRIVEKRVKGAEKASFGGPVLLYRTLRKVTKLYKYITDKKSFPILVTSLFALFNPNSVLAADKYSNFEELKENESPLSYNILTTDVDRRVLILAPHGGGIEGGTSELARELSKSYSAYLFEGLRIPGASELHITSTNFDEPQALDLLSKHDLTISIHGYASSKKHTLVGGTDREKAAKITSLLTDAGFSAELLSEDSRLAGTNEQNIANKNSTGMSIQLEISTEQRREMFNTFTLAGRNGTQNQVFYDYIAVLTKFINENVYCMAGVAPLEHHHHHH | not soluble
MRHFDASQPLRVAVLGTGFGSKVHIPALQHHSETTVQAVYHRQPDRAAAIAVQFGIPNAYSDLDQLLADPAIEAVTIASPPFLHYPMAWAALSAGKSVLLEKPTTLNVEEARALWKLASSQGLTVTLDFEYRFVPAWQYVAELLAEGVIGQPWLVKLDWLMSSRADASRPWNWYALRSQGGGALGALGSHSFDYLAWLFGPARRLQARLFTAIQERPDATTGELKPVDSDDTDLIQLELAEGVPCQISLSSVFRQGRGHWLEVYGDRGTLILGSSNQKDYVHGFQVWFASAGQALQELTVPQRLAFRQEFADGRLAPFLRVVDHWLADLRHGQMTAPSLKEGLYSQLLIDLCWQSQRSGEWQTVPELNRFLLEHHHHHH | not soluble
LIFTCDKNKLQESIAIAQKAITGKSTMPILEGLYIEASENIVTIIGSDKDVSIETKFEADVTEPGKLVVDAKIFGEIIRKLPNDKIKIETVSEEAIRITCQKSVFDLLHMNAEDFPSLPKINENMIFSINQGILKNMIKGTSFAIAQDETRPILQGILFEIKDSKLNLVALDGYRLAIRTENIDTNNTINAVIPGKTLNEVAKILEDSEEIVNITFTPNHILFNMGDTKVISRLLEGEFIKYDALLPKEHKLQIEVDKQTLQNGIERASLMAKEGNSNLVKFDITDENIVITSNSQLGKVREEVTIKLQGDEIQIAFNSKYLLDVLKNMEEDKIELRMTSSISPCIIRNKNNDLCEYLVLPVRIAR | soluble
